Test results from patent US20190062438A1 (CSL, published 2019).

How the values were obtained:
Assay in all cases: SPR, kinetics, Fab over captured mutant
shCD131 T106A = biological target: T1, shCD131 T106A (human, UniProt P32927 17-438)
T1 construct: C-terminal 6xHis
T1 sequence: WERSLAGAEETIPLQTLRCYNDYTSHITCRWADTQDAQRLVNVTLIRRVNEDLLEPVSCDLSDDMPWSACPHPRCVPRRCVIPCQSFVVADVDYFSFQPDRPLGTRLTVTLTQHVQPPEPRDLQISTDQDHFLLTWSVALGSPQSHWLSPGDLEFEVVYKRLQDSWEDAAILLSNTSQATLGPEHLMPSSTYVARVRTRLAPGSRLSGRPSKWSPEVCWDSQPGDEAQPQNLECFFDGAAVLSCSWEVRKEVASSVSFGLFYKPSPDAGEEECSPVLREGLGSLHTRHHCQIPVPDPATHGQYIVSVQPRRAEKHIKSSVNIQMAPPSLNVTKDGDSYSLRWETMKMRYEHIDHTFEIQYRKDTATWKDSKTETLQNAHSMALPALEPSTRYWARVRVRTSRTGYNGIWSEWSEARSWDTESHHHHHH

shCD131 E366A = biological target: T2, shCD131 E366A (human, UniProt P32927 17-438)
T2 construct: C-terminal 6xHis
T2 sequence: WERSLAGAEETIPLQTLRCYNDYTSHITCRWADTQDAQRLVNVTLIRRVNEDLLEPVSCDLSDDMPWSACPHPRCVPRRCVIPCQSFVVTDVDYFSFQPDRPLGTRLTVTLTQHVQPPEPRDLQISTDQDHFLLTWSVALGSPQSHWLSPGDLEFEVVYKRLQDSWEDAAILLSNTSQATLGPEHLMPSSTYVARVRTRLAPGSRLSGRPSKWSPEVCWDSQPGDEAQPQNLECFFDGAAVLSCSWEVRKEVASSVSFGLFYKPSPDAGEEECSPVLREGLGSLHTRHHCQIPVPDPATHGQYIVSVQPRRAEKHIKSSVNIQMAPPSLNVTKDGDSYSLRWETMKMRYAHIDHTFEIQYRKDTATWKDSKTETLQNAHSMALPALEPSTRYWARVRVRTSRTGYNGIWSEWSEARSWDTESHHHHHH

shCD131 D369A = biological target: T3, shCD131 D369A (human, UniProt P32927 17-438)
T3 construct: C-terminal 6xHis
T3 sequence: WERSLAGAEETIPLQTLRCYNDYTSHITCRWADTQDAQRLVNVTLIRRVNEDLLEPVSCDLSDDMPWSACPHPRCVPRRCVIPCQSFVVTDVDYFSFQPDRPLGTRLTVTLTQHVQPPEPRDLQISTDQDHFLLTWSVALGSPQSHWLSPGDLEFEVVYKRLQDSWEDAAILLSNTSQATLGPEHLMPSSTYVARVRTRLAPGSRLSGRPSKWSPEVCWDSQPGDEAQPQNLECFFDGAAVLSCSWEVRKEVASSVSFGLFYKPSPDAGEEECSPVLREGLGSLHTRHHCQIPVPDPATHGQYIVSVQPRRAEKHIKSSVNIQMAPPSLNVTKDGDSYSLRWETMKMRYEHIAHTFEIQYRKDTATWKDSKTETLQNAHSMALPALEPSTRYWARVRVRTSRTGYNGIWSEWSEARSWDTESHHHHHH

shCD131 T419A = biological target: T4, shCD131 T419A (human, UniProt P32927 17-438)
T4 construct: C-terminal 6xHis
T4 sequence: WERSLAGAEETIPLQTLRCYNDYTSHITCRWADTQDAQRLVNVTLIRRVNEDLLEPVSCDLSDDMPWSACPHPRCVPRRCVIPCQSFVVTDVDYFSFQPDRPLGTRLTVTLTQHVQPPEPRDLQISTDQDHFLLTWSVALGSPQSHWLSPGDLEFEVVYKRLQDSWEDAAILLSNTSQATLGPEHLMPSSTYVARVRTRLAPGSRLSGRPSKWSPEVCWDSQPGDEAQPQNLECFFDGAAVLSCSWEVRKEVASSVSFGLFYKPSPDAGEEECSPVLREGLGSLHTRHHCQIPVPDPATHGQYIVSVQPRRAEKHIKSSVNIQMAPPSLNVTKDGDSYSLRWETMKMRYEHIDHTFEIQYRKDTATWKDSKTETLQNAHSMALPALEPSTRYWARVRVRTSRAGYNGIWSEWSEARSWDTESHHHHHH

B1: 9A2 Fab (Fab, V domains shown)
VH: EVQLLESGGGLVQPGGSLRLSCAASGFTFSHYHMLWVRQAPGKGLEWVSSIRSSGGFTYYADSVKGRFTISRDNSKNTLYLQMNSLRAEDTAVYYCARFYDSFFDIWGQGTMVTVSS
VL: DIQMTQSPSSVSASVGDRVTITCRASQGISSWLAWYQQKPGKAPKLLIYAASSLQSGVPSRFSGSGSGTDFTLTISSLQPEDFATYYCQQANSFPITFGQGTRLEIKR
notes: also called recombinant Fab of 9A2
In the case of B1, the Kd (shCD131 T106A) is reported as 0.0058 µM, the Kd (shCD131 E366A) is reported as 0.032 µM and the Kd (shCD131 D369A) is reported as 0.028 µM. For the same binder, the Kd (shCD131 T419A) was 0.053 µM.
